Experimental data: PMC4738300, “Physiological lipid composition is vital for homotypic ER membrane fusion mediated by the dynamin-related GTPase Sey1p” (Scientific Reports, 2016)

B1: untagged full-length Sey1p reconstituted into proteoliposomes (natural protein, S. cerevisiae)
chain: GPGMADRPAIQLIDEEKEFHQSALQYFQQCIGNRDVGLDYHVISVFGSQSSGKSTLLNVLFNTNFDTMDAQVKRQQTTKGIWLAHTKQVNTTIEIDNDRPDIFVLDVEGSDGSERGEDQDFERKAALFAIAVSEVLIVNMWEQQIGLYQGNNMALLKTVFEVNLSLFGKNDNDHKVLLLFVIRDHVGVTPLSSLSDSVTRELEKIWTELSKPAGCEGSSLYDYFDLKFVGLAHKLLQEDKFTQDVKKLGDSFVMKGTENYYFKPQYHHRLPLDGWTMYAENCWDQIERNKDLDLPTQQILVARFKTEEISNEALEEFISKYDESIAPLKGNLGSLTSQLVKLKEECLTKYDEQASRYARNVYMEKREALNTKLNSHISGTINEFLESLMEKLWDDLKLEVSSRDKATTSFVESVAAGKSKIEKEFNESMETFKKLGLLISNEEITCKFSDDIEERIKQLRDAELKAKIGRIKKNLVPELKDHVIHLLSHPSKKVWDDIMNDFESTIKDNISAYQVEKDKYDFKIGLSESENAKIYKNIRILAWRTLDTTVHDYLKIDTIVSILRDRFEDVFRYDAEGSPRLWKTEEEIDGAFRVAKEHALEVFEVLSLAVTSDNVEIIPDVPMAEEESGEDNEIYRDNEGVFHSRRFAHILTELQKENVLDQFRRQINITVLDSKRSIITTRTHIPPWIYVLLAVLGWNEFVAVIRNPLFVTLTLILGATFFVIHKFGLWGPVVNVVQSAVGETRTAIKDKLRQFVVEDHEVKESFEMKDFSKNEQKEK
notes: three extra N-terminal residues (Gly-Pro-Gly) left after 3C protease cleavage, printed in three-letter code; Inserted by its two C-terminal transmembrane domains into liposomes; Protein-to-lipid ratio 1/500 (mol/mol); also called untagged form of Sey1p; Sey1p proteoliposomes; not shown: His6, N-terminal, cleaved
B2: Sey1p (tagged full-length recombinant Sey1p: GST-His6-3C-Sey1p and His6-3C-Sey1p) (natural protein, S. cerevisiae, UniProt Q99287 1-776, looked up)
chain: MADRPAIQLIDEEKEFHQSALQYFQQCIGNRDVGLDYHVISVFGSQSSGKSTLLNVLFNTNFDTMDAQVKRQQTTKGIWLAHTKQVNTTIEIDNDRPDIFVLDVEGSDGSERGEDQDFERKAALFAIAVSEVLIVNMWEQQIGLYQGNNMALLKTVFEVNLSLFGKNDNDHKVLLLFVIRDHVGVTPLSSLSDSVTRELEKIWTELSKPAGCEGSSLYDYFDLKFVGLAHKLLQEDKFTQDVKKLGDSFVMKGTENYYFKPQYHHRLPLDGWTMYAENCWDQIERNKDLDLPTQQILVARFKTEEISNEALEEFISKYDESIAPLKGNLGSLTSQLVKLKEECLTKYDEQASRYARNVYMEKREALNTKLNSHISGTINEFLESLMEKLWDDLKLEVSSRDKATTSFVESVAAGKSKIEKEFNESMETFKKLGLLISNEEITCKFSDDIEERIKQLRDAELKAKIGRIKKNLVPELKDHVIHLLSHPSKKVWDDIMNDFESTIKDNISAYQVEKDKYDFKIGLSESENAKIYKNIRILAWRTLDTTVHDYLKIDTIVSILRDRFEDVFRYDAEGSPRLWKTEEEIDGAFRVAKEHALEVFEVLSLAVTSDNVEIIPDVPMAEEESGEDNEIYRDNEGVFHSRRFAHILTELQKENVLDQFRRQINITVLDSKRSIITTRTHIPPWIYVLLAVLGWNEFVAVIRNPLFVTLTLILGATFFVIHKFGLWGPVVNVVQSAVGETRTAIKDKLRQFVVEDHEVKESFEMKDFSKNEQKEK
notes: The bait copy is GST-His6-3C-Sey1p (pET-41 Ek/LIC) and the prey copy is His6-3C-Sey1p (pET-30 Ek/LIC); GST is on the bait copy only; The tags were not cleaved in the pull-down; also called GST-Sey1p; His6-Sey1p; source: E. coli Rosetta 2(DE3)pLysS, purified (COSMOGEL His-Accept beads, imidazole elution, dialysis; in 0.4% Triton X-100); not shown: His6, N-terminal, kept; GST, N-terminal, kept

Assays:
[1] = target: the molecule itself; test: proteoliposome docking assay (co-isolation of liposomes on streptavidin beads); biotin-labeled Sey1p proteoliposomes held on streptavidin magnetic beads and Rh-labeled Sey1p proteoliposomes (500 uM lipid each) in RB500 with 2 mM MgCl2 and 1 mM GTP, 30 °C, 30 min; Rh fluorescence of co-isolated liposomes; complete ER-mimicking lipids and four lipid subsets (Table 1)
[2] = target: the molecule itself; test: pull-down; GST-Sey1p and His6-Sey1p, 4 uM each, mixed in RB150 (20 mM Hepes-NaOH pH 7.4, 150 mM NaCl, 10% glycerol) with 0.4% Triton X-100, 2 mM MgCl2 and 1 mM GTP, 4 °C; GST-Sey1p isolated on glutathione-Sepharose 4B; SDS-PAGE, Coomassie Blue

| Protein | binding result [1] | binding result [2] |
| --- | --- | --- |
| B1 | binds | – |
| B2 | – | binds |
